In the RNAGym collection of RNA variant scans (doi:10.1093/nar/gkz1192):

B1: CPEB3 Ribozyme (parent)
chain: UAACAGGGGGCCACAGCAGAAGCGUUCACGUCGCAGCCCCUGUCAGAUUCUGGUGAAUCUGCGAAUUCUGCUGUAUAUCUC

Variants of: B1
Assay: self-cleavage, relative activity (ratio to wild type); higher = more cleavage; in vitro, sequencing
Summary of the method: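 Relative activity was defined as the cleaved/total read fraction for a variant divided by the same fraction for the unmutated ribozyme. CPEB3 self-cleaving ribozyme libraries were made by rounds of error-prone PCR, barcoded, and transcribed in vitro with T7 RNA polymerase for 5 hours at 37°C, and cleavage ran through transcription plus a 15 min DNase I step before EDTA. Illumina sequencing of template-switched reverse transcripts gave the reads, and DNA sequencing mapped the barcodes. Averages come from three batches, using variants with at least 5 reads.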

Compared with UAACAGGGGGCCACAGCAGAAGCGUUCACGUCGCAGCACCUGUCAGAUUCUGGUGAAUCUGCGAACUCUGCUGUAUAUCUC, UAACAGGGGGCCACAGCAGAAGCGUUCACGUCGCAGCACCUGUCAGAUUCUGGUGAAUCUGCGAAAUCUGCUGUAUAUCUC is lower in self-cleavage: 0.15 for the first, 0.12 for the second.

Going from UAACAGGGGGCCACAGCAGAAGCGUUCACGUCGCAGUCCCUGUCAGAUUCUGGUGAAUCUGCGAAAUCUGCUGUAUAUCUC to UAACAGGGGGCCACAGCAGAAGCGUUCACGUCGCAGCACCUGUCAGGUUCUGGUGAAUCUGCGAAUUCUGCUGUAUAUCUC, the self-cleavage falls from 0.25 to 0.2.

First: UAACAGGGGGCCACAGCAGAAGCGUUCACGUCGCAGCACCUGUCAGCUUCUGGUGAAUCUGCGAAUUCUGCUGUAUAUCUC
Second: UAACAGGGGGCCACAGCAGAAGCGUUCACGUCGCAGUCCCUGUCAGAUUCUGGUGAAUCUGCGAAUUCUGCUGUAUAUCAC
The self-cleavage of the first is lower: 0.5 for the first, 0.99 for the second.

Compared with UAACAGGGGGCCACAGCAGAAGCGUUCACGUCGCAGUCCCUGUCAGAUUCUGGUGAAUCUGCGAAUUCUGCUGUAUAUCCC, UAACAGGGGGCCACAGCAGAAGCGUUCACGUCGCAGCACCUGUCAGAUUCUGGUGCAUCUGCGAAUUCUGCUGUAUAUCUC is lower in self-cleavage: 0.74 for the first, 0.1 for the second.

Going from UAACAGGGGGCCACAGCAGAAGCGUUCACGUCGCAGCACCUGUCAGAUUCUGGUGUAUCUGCGAAUUCUGCUGUAUAUCUC to UAACAGGGGGCCACAGCAGAAGCGUUCACGUCGCAGCACCUGUCAGAUUCUGGUGGAUCUGCGAAUUCUGCUGUAUAUCUC, the self-cleavage falls from 0.27 to 0.26.

First: UAACAGGGGGCCACAGCAGAAGCGUUCACGUCGCAGCACCUGUCAGAUUCAGGUGAAUCUGCGAAUUCUGCUGUAUAUCUC
Second: UAACAGGGGGCCACAGCAGAAGCGUUCACGUCGCAGCACCUGUCAGAUUCCGGUGAAUCUGCGAAUUCUGCUGUAUAUCUC
The self-cleavage of the first is lower: 0.17 for the first, 0.18 for the second.

Going from UAACAGGGGGCCACAGCAGAAGCGUUCACGUCGCAGUCCCUGUCAGAUUCUGGUGAAUCUGCGAAUCCUGCUGUAUAUCUC to UAACAGGGGGCCACAGCAGAAGCGUUCACGUCGCAGUCCCUGUCAGAUUCUGGCGAAUCUGCGAAUUCUGCUGUAUAUCUC, the self-cleavage rises from 0.22 to 0.79.

Going from UAACAGGGGGCCACAGCAGAAGCGUUCACGUCGCAGUCCCUGUCAGAUUCUGGAGAAUCUGCGAAUUCUGCUGUAUAUCUC to UAACAGGGGGCCACAGCAGAAGCGUUCACGUCGCAGUCCCUGCCAGAUUCUGGUGAAUCUGCGAAUUCUGCUGUAUAUCUC, the self-cleavage falls from 0.82 to 0.31.

Compared with UAACAGGGGGCCACAGCAGAAGCGUUCACGUCGCAGUCCCUGGCAGAUUCUGGUGAAUCUGCGAAUUCUGCUGUAUAUCUC, UAACAGGGGGCCACAGCAGAAGCGUUCACGUCGCAGUCCCUGUCAGAUUCUGGUGAAUCUGCGAAUUCUGCAGUAUAUCUC is higher in self-cleavage: 0.19 for the first, 0.27 for the second.

Compared with UAACAGGGGGCCACAGCAGAAGCGUUCACGUCGCAGUCCCUGUCAGAUUCUGGUGAAUCUGCGAAUUCUGCCGUAUAUCUC, UAACAGGGGGCCACAGCAGAAGCGUUCACGUCGCAGCACCUGUCUGAUUCUGGUGAAUCUGCGAAUUCUGCUGUAUAUCUC is lower in self-cleavage: 0.79 for the first, 0.33 for the second.

Going from UAACAGGGGGCCACAGCAGAAGCGUUCACGUCGCAGCACAUGUCAGAUUCUGGUGAAUCUGCGAAUUCUGCUGUAUAUCUC to UAACAGGGGGCCACAGCAGAAGCGUUCACGUCGCAGCACUUGUCAGAUUCUGGUGAAUCUGCGAAUUCUGCUGUAUAUCUC, the self-cleavage rises from 0.05 to 0.22.

First: UAACAGGGGGCCACAGCAGAAGCGUUCACGUCGCAGCACCUGUCAGAUUCUGGUGAAUCUGCGAAUUCAGCUGUAUAUCUC
Second: UAACAGGGGGCCACAGCAGAAGCGUUCACGUCGCAGUCCCUGUCAGAUUCUGGUGAAUCUGCGAAUUCUGCUGUACAUCUC
The self-cleavage of the first is lower: 0.19 for the first, 0.57 for the second.

Compared with UAACAGGGGGCCACAGCAGAAGCGUUCACGUCGCAGUCCCUGUCAGAUUCUGGUGAAUCUGCGAAUUCUGCUGUAAAUCUC, UAACAGGGGGCCACAGCAGAAGCGUUCACGUCGCAGCACCUGUCAGAUUCUGGUGAAUCUGCGAAUUCUGCUGUAUACCUC is lower in self-cleavage: 0.55 for the first, 0.33 for the second.

First: UAACAGGGGGCCACAGCAGAAGCGUUCACGUCGCAGCACCUGUCAGAUUCUGGUGAAUCUGCGUAUUCUGCUGUAUAUCUC
Second: UAACAGGGGGCCACAGCAGAAGCGUUCACGUCGCAGCACCUGUCAGAUUCUGGUGAAUCUGCGCAUUCUGCUGUAUAUCUC
The self-cleavage of the first is lower: 0.09 for the first, 0.15 for the second.

Compared with UAACAGGGGGCCACAGCAGAAGCGUUCACGUCGCAGCACCUGUCAGAUUCUGGUGAACCUGCGAAUUCUGCUGUAUAUCUC, UAACAGGGGGCCACAGCAGAAGCGUUCACGUCGCAGCACCUGUCAGAUACUGGUGAAUCUGCGAAUUCUGCUGUAUAUCUC is higher in self-cleavage: 0.24 for the first, 0.27 for the second.

Compared with UAACAGGGGGCCACAGCAGAAGCGUUCACGUCGCAGCACCUGUCAGAUCCUGGUGAAUCUGCGAAUUCUGCUGUAUAUCUC, UAACAGGGGGCCACAGCAGAAGCGUUCACGUCGCAGUCCCUGUCAGAUCCUGGUGAAUCUGCGAAUUCUGCUGUAUAUCUC is higher in self-cleavage: 0.16 for the first, 0.37 for the second.

Compared with UAACAGGGGGCCACAGCAGAAGCGUUCACGUCGCAGUCCCUGUCAGAUACUGGUGAAUCUGCGAAUUCUGCUGUAUAUCUC, UAACAGGGGGCCACAGCAGAAGCGUUCACGUCGCAGCACCUGUCAGAUUCUGGUGAAUCUGCGAAUUCUGCUGGAUAUCUC is lower in self-cleavage: 0.38 for the first, 0.27 for the second.

Going from UAACAGGGGGCCACAGCAGAAGCGUUCACGUCGCAGUCCCUGUCAGAUUCUGGUGAAUCUGCGAAUUCUGCUGUAUAGCUC to UAACAGGGGGCCACAGCAGAAGCGUUCACGUCGCAGUCCCUGUCAGAUUCUGGUGAAUCUGCGAAUUCUGCUGUAUACCUC, the self-cleavage falls from 1 to 0.56.

Going from UAACAGGGGGCCACAGCAGAAGCGUUCACGUCGCAGCACCUGUCAGAAUCUGGUGAAUCUGCGAAUUCUGCUGUAUAUCUC to UAACAGGGGGCCACAGCAGAAGCGUUCACGUCGCAGCACCUGUCAGAUUCUGGAGAAUCUGCGAAUUCUGCUGUAUAUCUC, the self-cleavage rises from 0.36 to 0.56.

First: UAACAGGGGGCCACAGCAGAAGCGUUCACGUCGCAGCACCUGUCAGAUUCUGGCGAAUCUGCGAAUUCUGCUGUAUAUCUC
Second: UAACAGGGGGCCACAGCAGAAGCGUUCACGUCGCAGUCCCUGUCAGAUUCUGGUGAAUCAGCGAAUUCUGCUGUAUAUCUC
The self-cleavage of the first is higher: 0.29 for the first, 0.24 for the second.

First: UAACAGGGGGCCACAGCAGAAGCGUUCACGUCGCAGUCCCUGUCAGAUUCUGGUGAAUCCGCGAAUUCUGCUGUAUAUCUC
Second: UAACAGGGGGCCACAGCAGAAGCGUUCACGUCGCAGUCCCUGUCAGACUCUGGUGAAUCUGCGAAUUCUGCUGUAUAUCUC
The self-cleavage of the first is lower: 0.35 for the first, 0.36 for the second.

Compared with UAACAGGGGGCCACAGCAGAAGCGUUCACGUCGCAGUCCCCGUCAGAUUCUGGUGAAUCUGCGAAUUCUGCUGUAUAUCUC, UAACAGGGGGCCACAGCAGAAGCGUUCACGUCGCAGUCCCAGUCAGAUUCUGGUGAAUCUGCGAAUUCUGCUGUAUAUCUC is lower in self-cleavage: 0.89 for the first, 0.18 for the second.

Compared with UAACAGGGGGCCACAGCAGAAGCGUUCACGUCGCAGCACCUGACAGAUUCUGGUGAAUCUGCGAAUUCUGCUGUAUAUCUC, UAACAGGGGGCCACAGCAGAAGCGUUCACGUCGCAGCACCUGUCAGAUUCUGGUGAAUCUGCGAAUUCUGCUGUUUAUCUC is higher in self-cleavage: 0.34 for the first, 0.39 for the second.

Going from UAACAGGGGGCCACAGCAGAAGCGUUCACGUCGCAGUCCCUGUCAGAUUCUGGUGAAUCUGCGAAUUCUGCUGCAUAUCUC to UAACAGGGGGCCACAGCAGAAGCGUUCACGUCGCAGUCCCUGUCAGAUUCUGGUGAAUCUGCGAAUUCUGCUGAAUAUCUC, the self-cleavage rises from 1.12 to 1.17.

First: UAACAGGGGGCCACAGCAGAAGCGUUCACGUCGCAGCACCUGUCAGAUUCUGGUGAGUCUGCGAAUUCUGCUGUAUAUCUC
Second: UAACAGGGGGCCACAGCAGAAGCGUUCACGUCGCAGCACCUGUCAGAUUCUGGUGAAUCUGCGAAUACUGCUGUAUAUCUC
The self-cleavage of the first is higher: 0.19 for the first, 0.17 for the second.

Going from UAACAGGGGGCCACAGCAGAAGCGUUCACGUCGCAGUCCCUGUCAGAUUCUGGUGAAUCUGCGAAUUCAGCUGUAUAUCUC to UAACAGGGGGCCACAGCAGAAGCGUUCACGUCGCAGUCCCUGUCAGAUUCUGGUGAAUCUGCGAAUUCCGCUGUAUAUCUC, the self-cleavage rises from 0.2 to 0.42.

Compared with UAACAGGGGGCCACAGCAGAAGCGUUCACGUCGCAGCACCUGUCAGAUUCUGGUGAAUCUGCGAAUUCUGCGGUAUAUCUC, UAACAGGGGGCCACAGCAGAAGCGUUCACGUCGCAGCACCUGUCAGAUUCUGGUGAAUCUGCGAAUUCUGCCGUAUAUCUC is higher in self-cleavage: 0.17 for the first, 0.53 for the second.

First: UAACAGGGGGCCACAGCAGAAGCGUUCACGUCGCAGCACCUGUCAGAUUCUGGUGAAUCUGCGAAUUCUGCAGUAUAUCUC
Second: UAACAGGGGGCCACAGCAGAAGCGUUCACGUCGCAGCACCUGUCAGAUUCUGGUGAAUCUGCGAAUUCUGCUGUAUAUCUC
The self-cleavage of the first is higher: 0.34 for the first, 0.3 for the second.

Compared with UAACAGGGGGCCACAGCAGAAGCGUUCACGUCGCAGCACCUCUCAGAUUCUGGUGAAUCUGCGAAUUCUGCUGUAUAUCUC, UAACAGGGGGCCACAGCAGAAGCGUUCACGUCGCAGUCCCUGUCAGAUUCCGGUGAAUCUGCGAAUUCUGCUGUAUAUCUC is higher in self-cleavage: 0.28 for the first, 0.67 for the second.

Going from UAACAGGGGGCCACAGCAGAAGCGUUCACGUCGCAGUCCCUGUCAGAUUCAGGUGAAUCUGCGAAUUCUGCUGUAUAUCUC to UAACAGGGGGCCACAGCAGAAGCGUUCACGUCGCAGUCCCUGUCAGAUUCGGGUGAAUCUGCGAAUUCUGCUGUAUAUCUC, the self-cleavage rises from 0.58 to 0.61.

Compared with UAACAGGGGGCCACAGCAGAAGCGUUCACGUCGCAGCACCCGUCAGAUUCUGGUGAAUCUGCGAAUUCUGCUGUAUAUCUC, UAACAGGGGGCCACAGCAGAAGCGUUCACGUCGCAGCACCAGUCAGAUUCUGGUGAAUCUGCGAAUUCUGCUGUAUAUCUC is lower in self-cleavage: 0.43 for the first, 0.19 for the second.

Going from UAACAGGGGGCCACAGCAGAAGCGUUCACGUCGCAGCACCUGUCAGAUUCUGGUGAAUCUGCGAUUUCUGCUGUAUAUCUC to UAACAGGGGGCCACAGCAGAAGCGUUCACGUCGCAGCACCUGUCAGAUUCUGGUGAAUCUGCGAAUUCUGCUCUAUAUCUC, the self-cleavage rises from 0.28 to 0.45.

Compared with UAACAGGGGGCCACAGCAGAAGCGUUCACGUCGCAGCACCUGUCAGAUUCUGGUGAAUCUGCGAAUUCUGCUUUAUAUCUC, UAACAGGGGGCCACAGCAGAAGCGUUCACGUCGCAGCACCUGUCAGAUUCUGGUGAAUCUGCUAAUUCUGCUGUAUAUCUC is lower in self-cleavage: 0.91 for the first, 0.1 for the second.

Compared with UAACAGGGGGCCACAGCAGAAGCGUUCACGUCGCAGCACCUGUCAGAUUCUGGUGAAUCCGCGAAUUCUGCUGUAUAUCUC, UAACAGGGGGCCACAGCAGAAGCGUUCACGUCGCAGCACCUGUCAGAUUCUGGUGAAUCAGCGAAUUCUGCUGUAUAUCUC is lower in self-cleavage: 0.37 for the first, 0.2 for the second.
